{"source": "paper doi:10.1101/302828", "about": "(bioRxiv, 2018)", "proteins": {"B1": {"name": "recombinant murine chromogranin B (CHGB) (natural protein, mouse, UniProt P16014 21-677, looked up)", "chain": "APVDNRDHNEEMVTRCIIEVLSNALSKSSVPTITPECRQVLKKSGKEVKGEEKGENQNSKFEVRLLRDPADASGTRWASSREDAGAPVEDSQGQTKVGNEKWTEGGGHSREGVDDQESLRPSNQQASKEAKIYHSEERVGKEREKEEGKIYPMGEHREDAGEEKKHIEDSGEKPNTFSNKRSEASAKKKDESVARADAHSMELEEKTHSREQSSQESGEETRRQEKPQELTDQDQSQEESQEGEEGEEGEEGEEGEEDSASEVTKRRPRHHHGRSGSNKSSYEGHPLSEERRPSPKESKEADVATVRLGEKRSHHLAHYRASEEEPEYGEESRSYRGLQYRGRGSEEDRAPRPRSEESQEREYKRNHPDSELESTANRHGEETEEERSYEGANGRQHRGRGREPGAHSALDTREEKRLLDEGHYPVRESPIDTAKRYPQSKWQEQEKNYLNYGEEGDQGRWWQQEEQLGPEESREEVRFPDRQYEPYPITEKRKRLGALFNPYFDPLQWKNSDFEKRGNPDDSFLEDEGEDRNGVTLTEKNSFPEYNYDWWERRPFSEDVNWGYEKRSFARAPQLDLKRQYDGVAELDQLLHYRKKADEFPDFYDSEEQMGPHQEANDEKARADQRVLTAEEKKELENLAAMDLELQKIAEKFSQRG"}}, "target": "the molecule itself", "assay": "SEC"}
{"protein": "B1", "values": [{"measurement": "stoichiometry N", "value": 2}]}
